Measured values reported in patent US11160869B2 (priority 2019, dated 2021).

Tests used:
[1] = tested on: chemokines, growth factors, cytokines; assay: Luminex 38-plex circulating cytokines, oxazolone colitis (Example 14); assay type: in vivo, mice
Method: Each sample was measured in duplicate.

STAT3 [2] = assay: pSTAT3 induction and hIL-10 in intestinal tissue 40 min after oral gavage, immunofluorescence and image analysis; assay type: in vivo, rat; conditions: 40 min post oral gavage
Method: This observation is consistent with findings in mice that intestinal epithelial cells can express IL-10 receptors at their apical surface under certain conditions associated with development and maintenance of barrier function. […] In order to quantify how test articles affected intestinal IL-10 signal transduction pathways, image analysis was performed: high-throughput image batches were collected, segmented by epithelial versus lamina propria localization, and then by cellular features.

[3] = Evaluation of chromatography modes (CEX, HIC): protein stability; assay type: physicochemical
Method: Several modes of chromatography were evaluated during process development.

[4] = Intracolonic spray in NHP: IL-1Ra, pSTAT3, construct and IL-10 in tissue and serum; assay type: in vivo, cynomolgus monkeys
Excerpt: This was achieved using a colonoscope with an associated spray nozzle. In this way, refined information for onset and duration of IL-1Ra induction could be obtained at specific local doses. […] The variability of pSTAT3/total STAT3 detected was consistent with tissue capture and stability challenges in this in vivo model. Measurement of tissue delivery construct levels had similar tissue capture and stability challenges, showing low and variable amounts in the tissue samples collected (FIG. 143). […] Since IL-10 can induce cells to produce more IL-10, we also looked for induced IL-10. […] It is important to note, due to the similarity of human and NHP IL-10, that ELISA values shown could also include hIL-10 that has somehow separated from the carrier domain of the delivery construct molecule. While this cannot be ruled out, no other data supports this as an outcome and it appears likely that the majority, if not all, tissue and serum IL-10 measured represents an NHP source.

[5] = tested on: human peripheral blood mononuclear cells (PBMCs); assay: LPS-induced TNFα, IL-6 and HLA-DR in PBMC monocytes, flow cytometry; conditions: pre-treatment
STAT3 [6] = assay: pSTAT3/total STAT3 in colon tissue of non-inflamed mice (ELISA MSD); assay type: in vivo; conditions: construct 1 mg/kg; rhIL-10 0.9 mg/kg; oral
IL-1Ra, IL-1β = assay: RT-PCR of IL-1Ra and IL-1β in near-distal colon; assay type: in vivo, mice; conditions: 9 mg/kg
[7] = Lyophilization buffer screens: HMW/dimer/monomer by SE-HPLC before and after lyophilization; assay type: physicochemical
Method: Size exclusion chromatography (SE-HPLC) can be used to characterize the size distribution of the IL-10 delivery construct. The percentage of IL-10 delivery construct found in dimer, monomer, and aggregate forms in a liquid composition or a lyophilized composition if reconstituted in a liquid can be determined by SEC-HPLC (FIG. 34).
Further testing based on the results from the initial liquid formulation screen, initial lyophilization feasibility studies were conducted using the conditions in TABLE 9. Glycine and mannitol, known to be useful in the lyophilization of proteins as […] bulking agents were added to this screen, histidine at pH 7.0 added to provide a more granular evaluation of the effect of pH in the 7.0-7.5 range, and trehalose was added as an option to sucrose as an osmolyte. FIGS. 21 and 22 show the percentage of target constructs in the dimer form before and after incubation at 25° C. for 3 days (FIG. 21) and before and after 5 freeze/thaw cycles (FIG. 22).
Based on the results from this initial study a second lyophilization screen was conducted using the formulations listed in TABLE 10.

IL-1Ra = assay: Single oral capsule dose in NHP: plasma IL-1Ra; assay type: in vivo, Macaca fascicularis
Method: The purpose of the IL-1Ra assay was to measure endogenous IL-1Ra in NHP plasma. The antibody pair in this sandwich immunoassay reacted with both human and NHP IL-1Ra. Samples were quantitated using an 8-point standard curve prepared from a human IL-1Ra calibrator (ranging from 5.5-4021 pg/mL, plus 0 pg/mL). Biotinylated anti-NHP IL-1Ra capture antibody was added to a MSD Small Spot Streptavidin plate and incubated for an hour at RT with shaking. Controls that represent low ([…]), mid ([…]) and high concentrations (3245 pg/mL) were prepared in pooled plasma, Standards (Calibrator 9 Blend) were prepared in Diluent 43 (MSD Cat No R50AG), and samples diluted 10 fold in Diluent 43. Standards, controls and diluted samples were added to the assay plate, and the plate incubated for 2 hours at room temperature with shaking. The plate was washed 3 times with PBST, and 1× SULFO TAG anti-IL-1Ra Antibody added to the plate. The plate was incubated for 1 hour at room temperature with shaking. Following a wash step, 2×MSD Read buffer was added to the wells of the plate, and the plate read using the MSD Sector Imager 600 plate reader. The lower limit of detection of each analyte is defined as 2.5 standard deviation above background.
IL-10 delivery construct dosing at multiple fixed doses in non-naïve adult male Macaca fascicularis was conducted by Valley Biosystems (West Sacramento, Calif.). […] Dosing groups are described in TABLE 45.

[8] = Purification process trains with S-650F cation exchange: yield, recovery, purity, endotoxin
Method: Refolding was carried out at 4° C. in a refolding solution containing 1 mM reduced glutathione, 0.5 mM oxidized glutathione, 1M Arginine-HC, 250 mM sucrose, 100 mM Tris pH 8.5 at 4° C., and 2 mM EDTA. […] Buffer A for the CHT bind/elute step in Table 56 may also comprise 25 mM Tris, pH7.5, 300 mM NaCl, 5.0 mM NaPi, 0.5 mM CaCl2. Columns used are described in Table 58.
The yield, recovery, and purity of the IL-10 delivery construct was assess after each step, and after each process train.
It was surprising that a cation exchange resin was useful in the purification of the IL-10 delivery construct as cation exchange resins are negatively charged, and thus bind to proteins with a positive charge. Here, the IL-10 delivery construct has a calculated isoelectric point (pI) of 5.49, and thus is anticipated to have a negative charge under conditions traditionally used in a cation exchange chromatography.

[9] = secondary formulation buffer screen, 0.3% Poloxamer
[10] = Control: Capto Q ImpRes, CHT gradient B/E (Table 59)
[11] = Control: Capto Q, CHT (Linear elution), based on historical data (Table 60)
[12] = PT1: Capto Q, S-650F, CHT (FT mode) (Table 60)
[13] = PT2: Capto Q ImpRes, CHT step B/E 80 mM NaPi, S-650F (Table 59)
[14] = PT2: Capto Q, CHT (Step elution), S-650F (Table 60)
[15] = PT3: S-650F, Capto Q, CHT (FT mode) (Table 60)

B1: IL-10 delivery construct: recombinant homodimeric fusion protein: N-terminal methionine, cholix386 domain, polyGlySer spacer, recombinant human IL-10 (protein)
chain: MVEEALNIFDECRSPCSLTPEPGKPIQSKLSIPSDVVLDEGVLYYSMTINDEQNDIKDEDKGESIITIGEFATVRATRHYVNQDAPFGVIHLDITTENGTKTYSYNRKEGEFAINWLVPIGEDSPASIKISVDELDQQRNIIEVPKLYSIDLDNQTLEQWKTQGNVSFSVTRPEHNIAISWPSVSYKAAQKEGSRHKRWAHWHTGLALCWLVPMDAIYNYITQQNCTLGDNWFGGSYETVAGTPKVITVKQGIEQKPVEQRIHFSKGNAMSALAAHRVCGVPLETLARSRKPRDLTDDLSCAYQAQNIVSLFVATRILFSHLDSVFTLNLDEQEPEVAERLSDLRRINENNPGMVTQVLTVARQIYNDYVTHHPGLTPEQTSAGAQAGGGGSGGGGSGGGGSPGQGTQSENSCTHFPGNLPNMLRDLRDAFSRVKTFFQMKDQLDNLLLKESLLEDFKGYLGCQALSEMIQFYLEEVMPQAENQDPDIKAHVNSLGENLKTLRLRLRRCHRFLPCENKSKAVEQVKNAFNKLQEKGIYKAMSEFDIFINYIEAYMTMKIRN
modifications: homodimer
increased serum levels of MCSF, IL12 p70, IL-3 ([1]; 8.45 mg/kg): Treatment-mediated suppression | reduction of plasma IL-23 compared with Vehicle ([1]; 8.45 mg/kg prophylactic): 73% | reduction of plasma IL-6 compared with Vehicle ([1]; 8.45 mg/kg prophylactic, Luminex): 33% | hIL-10 and pSTAT3 in intestinal tissue (STAT3 [2]): extensive amounts of hIL-10 and a large number of cells that were positive for pSTAT3 within the lamina propria | behaviour at relatively low pH (cation exchange) [3]: precipitate at a pH below the pI of the target construct (pH 5.5) | behaviour in high salt (hydrophobic interaction chromatography) [3]: unstable in the high salt | serum levels of IL-10 [4]: increased in a dose-dependent manner | serum levels of the delivery construct ([4]; 1, 3, or 10 mg colonic spray): below the assay detection limit | time to reach the lamina propria following luminal application ([4]; cynomolgus monkey, in vivo): ~15 min | tissue IL-10 levels ([4]; within 15 min after spray): dose-dependent and transient increases | LPS-induced secreted TNFα [5]: dose-dependent reduction | LPS-induced surface expression of HLA-DR [5]: dose-dependent reduction | increase in ratio of pSTAT3 to total STAT3 (STAT3 [6]): approximately 50% | IL-1Ra/IL-1β mRNA ratio in colonic tissue (IL-1Ra, IL-1β): increase | mRNA expression of IL-1Ra in near-distal colonic tissue (IL-1Ra, IL-1β): trend towards augmented mRNA expression of IL-1Ra | stability with respect to aggregation ([7]; initial lyophilization feasibility study, conditions of TABLE 9): more stable at pH7.5 with sucrose and glycine | Pre-Lyophilization (%) Dimer [7, 9]: 89.2% | Pre-Lyophilization (%) HMW [7, 9]: 2.6% | Pre-Lyophilization (%) Monomer [7, 9]: 8.2% | plasma IL-1Ra Cmax (IL-1Ra; 82 mg, oral): 26,367 pg/mL | time of plasma IL-1Ra Cmax (IL-1Ra; 82 mg, oral): 3 hours post-dose | time by which plasma IL-1Ra returned to baseline (IL-1Ra; all dose groups): ≤ 24 h | plasma IL-1Ra and IFN-γ after oral enteric-coated capsules (IL-1Ra; compared with intravenous administration): increased IL-1Ra without significant induction of IFN-γ | Purity [8, 10]: 78.2 | Yield [8, 10]: 68 mg | Endotoxin [8, 11]: *8 EU/mg | Purity [8, 11]: *85% | Endotoxin [8, 12]: 8.9 EU/mg | Purity [8, 12]: 92% | Purity [8, 13]: 78.5% | Yield [8, 13]: 26 mg | Endotoxin [8, 14]: 5 EU/mg | Purity [8, 14]: 91% | Endotoxin [8, 15]: 0.4 EU/mg | Purity [8, 15]: 96%
